Tests used:
Type in all cases: cell-based
DARC = assay: Luciferase reporter gene assay (protein kinase C-responsive promoter), COS-1 cells expressing DARC but not CXCR4; conditions: COS-1 cells expressing DARC alone; luciferase gene controlled by protein kinase C-responsive promoter
Procedure: (§1) A second group of COS-1 cells were made to express DARC, but not CXCR4. A third group of COS-1 cells were made to express CXCR4, but not DARC. Signaling due to stromal cell derived factor 1 (SDF-1) and GRO-α was measured in a reporter gene assay using a luciferase gene controlled by a protein kinase C-responsive promoter.
(§2) Cell Culture and Transfection. COS-1 cells are maintained in Dulbecco's modified eagle's medium with 5% fetal calf serum and are seeded 1 day prior to transfection at 750,000 cells/100 mm dish. Cells are transfected with pcDNA3.1 (Invitrogen) encoding DARC (5 μg DNA/ml) or with pcDNA3.1 encoding CXCR4 (5 μg DNA/ml), or both using the DEAE-dextran method and maintained in Dulbecco's modified Eagle's medium with 10% fetal calf serum for 1 day at which time cells are harvested and seeded into 12-well plates at 100,000 cells/well or 24-well plates at 50,000 cells/well in Dulbecco's modified Eagle's medium with 5% fetal calf serum. Other cell lines, such as HEK-293 or CHO cells, can be stably transfected with DARC or CXCR4, or both.
(§3) Reporter Gene Assays. […] Agonists or agonists plus antagonists are added for four hours and the reporter activity measured. […]

CXCR4 = molecular target: T1, CXCR4 (Homo sapiens, UniProt P61073); assay: Luciferase reporter gene assay (protein kinase C-responsive promoter), COS-1 cells expressing CXCR4 but not DARC; conditions: COS-1 cells expressing CXCR4 alone; luciferase gene controlled by protein kinase C-responsive promoter
T1 construct: expressed in transfected cells; host or cells: COS-1 cells, transient DEAE-dextran transfection with pcDNA3.1 encoding CXCR4
T1 sequence (P61073 whole entry): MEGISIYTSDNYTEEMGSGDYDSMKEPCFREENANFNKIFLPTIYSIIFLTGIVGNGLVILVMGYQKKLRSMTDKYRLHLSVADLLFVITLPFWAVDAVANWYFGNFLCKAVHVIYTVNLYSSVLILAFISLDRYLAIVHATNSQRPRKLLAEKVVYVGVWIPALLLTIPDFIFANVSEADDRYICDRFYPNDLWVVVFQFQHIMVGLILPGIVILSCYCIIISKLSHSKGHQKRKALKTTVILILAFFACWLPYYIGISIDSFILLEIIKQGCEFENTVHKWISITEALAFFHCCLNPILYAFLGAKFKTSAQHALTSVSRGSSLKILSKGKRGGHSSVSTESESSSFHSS
Procedure: as §1, §2, §3

DARC and CXCR4 = molecular target: T2, DARC and CXCR4 (Homo sapiens, UniProt Q16570); assay: Luciferase reporter gene assay (protein kinase C-responsive promoter), COS-1 cells co-expressing DARC and CXCR4; conditions: single chemokine
T2 construct: expressed in transfected cells; host or cells: COS-1 cells co-transfected (DEAE-dextran) with pcDNA3.1 encoding DARC and pcDNA3.1 encoding CXCR4
T2 sequence (Q16570 1-336): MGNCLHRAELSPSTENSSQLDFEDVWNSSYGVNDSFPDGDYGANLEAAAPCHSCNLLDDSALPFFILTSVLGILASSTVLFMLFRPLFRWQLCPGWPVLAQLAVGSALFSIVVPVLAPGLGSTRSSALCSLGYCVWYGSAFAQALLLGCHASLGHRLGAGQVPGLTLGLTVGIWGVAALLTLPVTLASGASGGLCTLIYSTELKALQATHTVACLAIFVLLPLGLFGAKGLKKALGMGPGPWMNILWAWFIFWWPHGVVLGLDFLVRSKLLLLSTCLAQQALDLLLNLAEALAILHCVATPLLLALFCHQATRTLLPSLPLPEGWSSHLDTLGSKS
Procedure: as §1, §2, §3

| Signaling in reporter gene assay via CXCR4 (CXCR4) | Signaling (gene transcription) in reporter gene assay (DARC and CXCR4) | Substance | Signaling in reporter gene assay via DARC (DARC) |
| --- | --- | --- | --- |
| signals weakly |  | stromal cell derived factor 1 [SDF-1] | does not signal |
| did not signal | increase gene transcription | growth-related protein-α [GRO-α] | did not signal |

From US6365356B1, “Receptors that regulate cell signaling relating to chemokines” (Cornell Research Foundation, Inc., priority 1999, dated 2002)
